Test results: publication PMC9482650, “Quantitative fragmentomics allow affinity mapping of interactomes” (Nature Communications, 2022)

Assays:
Assay in all cases: holdup assay
Set-up in all cases: key: below the threshold = too weak to quantify, mostly under pKd 3.1 to 4
Details in all cases: plain residues with an end cap or a label only (N-terminal biotin on a linker: ttds)
Inadl_10, Q8NI35 = target: Inadl_10, Q8NI35
SCRIB_1, Q14160 = target: SCRIB_1, Q14160
SCRIB_2, Q14160 = target: SCRIB_2, Q14160
Sequence of SCRIB_2, Q14160 (Q14160 857-960): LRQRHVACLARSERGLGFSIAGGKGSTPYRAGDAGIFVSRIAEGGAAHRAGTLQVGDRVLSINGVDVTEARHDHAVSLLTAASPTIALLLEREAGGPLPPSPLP

LNX1_1, Q8TBB1 = target: LNX1_1, Q8TBB1
Sequence of LNX1_1, Q8TBB1 (Q8TBB1 261-371): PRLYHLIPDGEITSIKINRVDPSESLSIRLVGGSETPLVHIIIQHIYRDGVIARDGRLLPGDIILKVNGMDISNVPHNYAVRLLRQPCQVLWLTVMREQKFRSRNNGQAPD

CASK, O14936 = target: CASK, O14936
Sequence of CASK, O14936 (O14936 487-570): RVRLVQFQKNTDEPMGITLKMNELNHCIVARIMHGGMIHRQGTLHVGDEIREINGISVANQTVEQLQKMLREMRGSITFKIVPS

AHNAK1, Q09666 = target: AHNAK1, Q09666
Sequence of AHNAK1, Q09666 (Q09666 4-100): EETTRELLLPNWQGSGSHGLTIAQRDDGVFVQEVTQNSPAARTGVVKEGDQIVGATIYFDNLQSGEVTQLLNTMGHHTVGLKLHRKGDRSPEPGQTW

MAGI2_3, Q86UL8 = target: MAGI2_3, Q86UL8
Sequence of MAGI2_3, Q86UL8 (Q86UL8 600-682): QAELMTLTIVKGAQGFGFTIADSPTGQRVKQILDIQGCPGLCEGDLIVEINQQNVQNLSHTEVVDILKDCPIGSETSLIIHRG

PICK1, Q9NRD5 = target: PICK1, Q9NRD5
Sequence of PICK1, Q9NRD5 (Q9NRD5 17-115): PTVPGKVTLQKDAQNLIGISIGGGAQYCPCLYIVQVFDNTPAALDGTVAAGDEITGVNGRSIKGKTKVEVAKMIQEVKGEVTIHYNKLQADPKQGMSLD

RAPGEF6, Q8TEU7 = target: T1, RAPGEF6, Q8TEU7
T1 sequence (Q8TEU7 525-625, limits assumed, looked up): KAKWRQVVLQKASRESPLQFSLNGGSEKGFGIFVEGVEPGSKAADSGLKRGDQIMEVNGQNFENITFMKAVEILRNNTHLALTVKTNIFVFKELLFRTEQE

GOPC, Q9HD26 = target: GOPC, Q9HD26
Inadl_2, Q8NI35 = target: Inadl_2, Q8NI35
Sequence of Inadl_2, Q8NI35 (Q8NI35 238-335): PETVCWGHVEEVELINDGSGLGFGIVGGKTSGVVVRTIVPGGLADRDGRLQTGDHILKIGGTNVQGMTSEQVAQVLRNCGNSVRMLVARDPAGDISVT

RHPN1, Q8TCX5 = target: T2, RHPN1, Q8TCX5
T2 sequence (Q8TCX5 508-602, limits assumed, looked up): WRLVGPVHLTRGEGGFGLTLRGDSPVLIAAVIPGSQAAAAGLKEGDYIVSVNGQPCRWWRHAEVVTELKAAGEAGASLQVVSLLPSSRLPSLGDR

DLG3_3, Q92796 = target: T3, DLG3_3, Q92796
T3 sequence (Q92796 374-475, limits assumed, looked up): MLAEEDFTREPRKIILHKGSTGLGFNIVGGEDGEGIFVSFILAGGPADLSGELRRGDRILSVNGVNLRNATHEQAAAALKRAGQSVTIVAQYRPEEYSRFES

DLG1_3, Q12959 = target: DLG1_3, Q12959
LDB3, O75112 = target: LDB3, O75112
Sequence of LDB3, O75112 (O75112 1-94): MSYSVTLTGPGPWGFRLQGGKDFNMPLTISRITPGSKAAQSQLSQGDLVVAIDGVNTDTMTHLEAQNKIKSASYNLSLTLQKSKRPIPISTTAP

GRID2IP_1, A4D2P6 = target: GRID2IP_1, A4D2P6
Sequence of GRID2IP_1, A4D2P6 (A4D2P6 1-87): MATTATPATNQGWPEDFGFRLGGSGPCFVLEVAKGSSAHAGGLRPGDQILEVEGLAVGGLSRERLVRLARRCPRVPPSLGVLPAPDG

LRRC7, Q96NW7 = target: T4, LRRC7, Q96NW7
T4 sequence (Q96NW7 1440-1537, limits assumed, looked up): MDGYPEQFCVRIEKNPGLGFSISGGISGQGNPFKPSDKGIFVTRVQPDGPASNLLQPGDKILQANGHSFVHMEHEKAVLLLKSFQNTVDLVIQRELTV

Inadl_4, Q8NI35 = target: Inadl_4, Q8NI35
Sequence of Inadl_4, Q8NI35 (Q8NI35 547-651): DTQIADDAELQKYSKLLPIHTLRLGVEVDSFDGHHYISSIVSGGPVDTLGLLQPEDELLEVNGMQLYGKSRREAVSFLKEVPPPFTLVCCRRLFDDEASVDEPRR

NHERF3_3, Q5T2W1 = target: T5, NHERF3_3, Q5T2W1
T5 sequence (Q5T2W1 238-333, limits assumed, looked up): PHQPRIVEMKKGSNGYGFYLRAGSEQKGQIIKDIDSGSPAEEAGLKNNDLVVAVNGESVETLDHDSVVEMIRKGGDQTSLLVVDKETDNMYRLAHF

GRIP1_3, Q9Y3R0 = target: T6, GRIP1_3, Q9Y3R0
T6 sequence (Q9Y3R0 247-346, limits assumed, looked up): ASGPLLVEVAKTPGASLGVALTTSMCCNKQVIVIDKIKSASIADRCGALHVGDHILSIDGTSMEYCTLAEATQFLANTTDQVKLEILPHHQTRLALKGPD

MPP2, Q14168 = target: T7, MPP2, Q14168
T7 sequence (Q14168 180-250, limits assumed, looked up): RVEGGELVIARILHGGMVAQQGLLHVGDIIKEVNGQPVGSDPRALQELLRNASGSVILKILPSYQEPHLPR

DLG3_2, Q92796 = target: T8, DLG3_2, Q92796
T8 sequence (Q92796 221-321, limits assumed, looked up): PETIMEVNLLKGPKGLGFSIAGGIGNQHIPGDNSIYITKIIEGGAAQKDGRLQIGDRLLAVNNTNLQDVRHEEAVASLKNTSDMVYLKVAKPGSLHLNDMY

PDZRN4_1, Q6ZMN7 = target: PDZRN4_1, Q6ZMN7
Sequence of PDZRN4_1, Q6ZMN7 (Q6ZMN7 213-318): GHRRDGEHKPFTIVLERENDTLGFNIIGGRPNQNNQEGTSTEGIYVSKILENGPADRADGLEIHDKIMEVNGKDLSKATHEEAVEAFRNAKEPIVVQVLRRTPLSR

DFNB31_2, Q9P202 = target: T9, DFNB31_2, Q9P202
T9 sequence (Q9P202 274-371, limits assumed, looked up): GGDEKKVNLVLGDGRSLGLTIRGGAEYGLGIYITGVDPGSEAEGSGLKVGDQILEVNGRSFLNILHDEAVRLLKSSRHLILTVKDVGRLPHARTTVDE

LNX2_3, Q8N448 = target: T10, LNX2_3, Q8N448
T10 sequence (Q8N448 463-564, limits assumed, looked up): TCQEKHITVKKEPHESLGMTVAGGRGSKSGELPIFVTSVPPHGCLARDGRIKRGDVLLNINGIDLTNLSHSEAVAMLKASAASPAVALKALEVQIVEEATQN

TIAM2, Q8IVF5 = target: T11, TIAM2, Q8IVF5
T11 sequence (Q8IVF5 885-986, limits assumed, looked up): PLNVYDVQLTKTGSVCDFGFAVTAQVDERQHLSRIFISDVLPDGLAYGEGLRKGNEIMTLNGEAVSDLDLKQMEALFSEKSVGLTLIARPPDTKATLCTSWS

DLG1_1, Q12959 = target: DLG1_1, Q12959

Sequence of SCRIB_1, Q14160 (Q14160 718-814): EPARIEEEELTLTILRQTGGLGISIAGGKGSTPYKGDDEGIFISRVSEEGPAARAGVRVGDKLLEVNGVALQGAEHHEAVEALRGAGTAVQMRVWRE
Sequence of Inadl_10, Q8NI35 (Q8NI35 1673-1763): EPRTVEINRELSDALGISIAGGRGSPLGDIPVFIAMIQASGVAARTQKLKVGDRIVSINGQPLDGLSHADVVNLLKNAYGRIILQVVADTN

GRLLGLETNV [ARHGEF26, Q96DR7]
pKd (Inadl_10, Q8NI35): below the threshold
pKd (SCRIB_1, Q14160): 4.45
pKd (SCRIB_2, Q14160): 4.29
pKd (LNX1_1, Q8TBB1): 3.81
pKd (CASK, O14936): below the threshold
pKd (AHNAK1, Q09666): below the threshold
pKd (MAGI2_3, Q86UL8): 3.9
pKd (PICK1, Q9NRD5): below the threshold
pKd (RAPGEF6, Q8TEU7): below the threshold
pKd (GOPC, Q9HD26): below the threshold
pKd (Inadl_2, Q8NI35): below the threshold
pKd (RHPN1, Q8TCX5): 4.48
pKd (DLG3_3, Q92796): 4.23
pKd (DLG1_3, Q12959): 4.92
pKd (LDB3, O75112): below the threshold
pKd (GRID2IP_1, A4D2P6): below the threshold
pKd (LRRC7, Q96NW7): below the threshold
pKd (Inadl_4, Q8NI35): below the threshold
pKd (NHERF3_3, Q5T2W1): below the threshold
pKd (GRIP1_3, Q9Y3R0): below the threshold
pKd (MPP2, Q14168): below the threshold
pKd (DLG3_2, Q92796): 4.97
pKd (PDZRN4_1, Q6ZMN7): 3.48
pKd (DFNB31_2, Q9P202): below the threshold
pKd (LNX2_3, Q8N448): below the threshold
pKd (TIAM2, Q8IVF5): below the threshold
pKd (DLG1_1, Q12959): 4.76

QRPYRRESEI [KCNJ12, Q14500]
pKd (Inadl_10, Q8NI35): below the threshold
pKd (SCRIB_1, Q14160): 3.83
pKd (SCRIB_2, Q14160): 3.56
pKd (LNX1_1, Q8TBB1): below the threshold
pKd (CASK, O14936): below the threshold
pKd (AHNAK1, Q09666): below the threshold
pKd (MAGI2_3, Q86UL8): below the threshold
pKd (PICK1, Q9NRD5): below the threshold
pKd (RAPGEF6, Q8TEU7): below the threshold
pKd (GOPC, Q9HD26): below the threshold
pKd (Inadl_2, Q8NI35): below the threshold
pKd (RHPN1, Q8TCX5): 3.5
pKd (DLG3_3, Q92796): 4.32
pKd (DLG1_3, Q12959): 4.08
pKd (LDB3, O75112): below the threshold
pKd (GRID2IP_1, A4D2P6): below the threshold
pKd (LRRC7, Q96NW7): below the threshold
pKd (Inadl_4, Q8NI35): below the threshold
pKd (NHERF3_3, Q5T2W1): below the threshold
pKd (GRIP1_3, Q9Y3R0): 3.51
pKd (MPP2, Q14168): below the threshold
pKd (DLG3_2, Q92796): 4.28
pKd (PDZRN4_1, Q6ZMN7): 4.18
pKd (DFNB31_2, Q9P202): below the threshold
pKd (LNX2_3, Q8N448): below the threshold
pKd (TIAM2, Q8IVF5): below the threshold
pKd (DLG1_1, Q12959): 4.04
